# Reference: paper PMC9364112, “A natural fusion of flavodiiron, rubredoxin, and rubredoxin oxidoreductase domains is a self-sufficient water-forming oxidase of Trichomonas vaginalis” (The Journal of Biological Chemistry, 2022)
# B1: TvFDPF3 (holoTvFDPF3) (Trichomonas vaginalis G3) (protein)
# chain: MLKIQQLTEDIYWLGVLDSDLAVFDIVMETKYGTTYNAYLIKTPEGAVLVETVKERFFDEYIDKVKTVIGDIKNIKYLITNHTEPDHSGSIKRMVELLPDVTVVGSKTALTYLEDIMNIPFKSQSAEDLKVLKFGGKTFEFISCPFLHWPDSMYTHLVEEKTLFTCDSFGAHYSPKKSILMSQLPPEEEEGYQDALLYYYTAIFGPFKEYVIKGTDKILNLDIKLICLGHGPVLDARIKETIDTYRKWSAPIPPHEGKEVVMVYASAYGYTTEMAEEIKTGIMEKCPDAKVKMFNVNIQNYGALKGEIMGAIATADGVLLGTNTINGDAVPPIWDVALSMNPIVHGGKVVSAFGSYGWSGEGVDNIIKRFDQIRCKVIDGMKIKFRMSKKEHEKVREFGNQFGNSLVTGVVPERAVPGKVVGAKDWSQLNPTGQIVLWRCVICGEIYAGVTPPAQCPACGVSEDLFELYEGEEIAVKSTEKLNFVVVGSGAAAVAACEAIRQRNSAASIQMITREKIMPYYRPIIVDALHGPIPDDQYWIKPEQWYKDNKIDVMLDTNVTSVDSKAKKVKLCCGKEVAYDKLILCTGSKPFVPPLGQEGLEGVLVIRTYLDVETLCKKCETAKSVVVIGGGVLGLENASNLEKKGLKVTVIECMPRLMSRQLDPEGSHFLEDAVRKYGINLKLGHAVGIKSDGKNVTGVQVGDEFVPADFIVINAGVRPECDVAKTGGVEIGRGISVNEKMETNIPDIYAAGDCAYLKNFNQGLWAPALAMGKVAGANAAGDDKTFSFAKEPVNMLAFNTDLFSIGCPPESEKGYNVIGQRDDKEGTLMRLYFQDNRLVYACCFKMQKISGALLKAAREGHSMQRVVAEVF
# notes: full length, 871 residues, C-terminal His6 (pET30a, E. coli BL21 Star DE3), ~100 kDa on SDS-PAGE; FDP-core head-to-tail dimer; holo preparation with full FAD/FMN
# B2: TvFDPF2 (Trichomonas vaginalis G3) (protein)
# chain: MLKIQQLTEDIYWLGVLDSNLAVFDIIMETKYGTTYNAYLIKTPEGAVLVETVKETFFDEYIEKVKSVIGDIHKIKYLITNHTEPDHSGSIKKMIELIPDLTVVGSKTALTYLEDIVNIPFKGHSAEDLKVLKFGGKSFEFISCPFLHWPDSMYTWVPEEKTLFTCDSFGAHYSPKKSILMSQLPPEEEEGYQDALLYYYTAIFGPFKEYVIKGTDKILNLDIKLVGLGHGPVLDARIKETIDTYRKWSAPLPTHEGKEVVMVYASAYGYTTEMAEEIKAGILAKIPDAKIKMFNVNIQNYGGLKGEIMNAIATADGVLLGTNTINGDAVPPVWDVALSMNPIVHGGKIVTAFGSYGWSGEGVDNIIARFDQIRCKVIDGCKIKFRMSKKEHGKVNEFGQQFGEALITGKVPERAVPGKVVGAKDWSELNPTGAVVLWRCVICGEIYAGVTPPLQCPACGVGQDLFELYEAEQVTHKSTEPLNYVIVGSGAAAVASIEAIRARNAVAKITMISREKVMPYYRPIIVDALNAEIAPDKYFLKNEEWYKENKIEIKLDTSVTAIDTKAKKVKLCRGDELAYDKLILATGSRPFIPPIGHEGLSGVIVIRTSADVDQLKAACQTAKKAVVIGGGVLGLENASAIKEKGVAVTVVECMPRLMARQLDTEASAVLLEEVKKFGVDVRLGMTVSIKGDGKHVTGVQVGEEFIPADFVVVNAGVRAESEVAAAAGIKCGRGIIVNNKMETNVPDVYAAGDCAFLDNMNQGLWAPALAMGKVAGANACGDNKTFAFAIEPVSMIAMGTDLFACGNPPESAQGYNVVSQKDDKEGSAIKLYFKDNRLVYAAGFRIQKISGSLLKGVREGRSLERIMAEIF
# notes: full length, 871 residues, C-terminal His6 (pET30a, E. coli BL21 Star DE3); aggregation-prone; poor FAD and FMN occupancy
# B3: TvFDPF1 (Trichomonas vaginalis G3) (protein)
# chain: MLKIQQLTEDIYWLGALDPTLAVFDIIMETKYGTTYNAYMIKTPAGAVLVETVKECFFEEYIEKVKSVIGDINNIKYLITNHTEPDHSGSIKKIIEIIPGLTVIGSKTALTYLEDIVNIPFRGHSAEDLKALKFGGKTFEFISCPFLHWPDSMYTWLPEEQALFTCDSFGAHYSPKKSILMSELPPEEEDGYQEALLYYYTAIFGPFKDFVIKGTDKILDLDIKIICLGHGPVLDARVQETIDTYRKWSEPALPHPGIEVVMVYASAYGYTTEMAEEIKNGILDKIPDASVKMYNVNIQNYGGMKADIMNSIATADGVLLGTNTINGDAVPPIWDVALSMNPIVHGGKIVTAFGSYGWSGEGVDNIINRFDKIRCKVVEPIKIKFRMSKKEHKQVREFGRRFADCLESGEVPDRAVPGRVVGAKDWSELNPTGAIVLWRCVICGEIYAGVTPPLVCPACGVGQDLFELYEAEEVTCSSFENLKFVVVGSGAAAVSAIDAIRARNTVASITMLTREKIMPYYRPIIVDALNSEISPENYYLKNEDWYTENNITVKLGTTVKSIDTARKSLTLSDGSTMQYDRLILATGSRPFVPPIGHEGLTGVYVIRTSNDVELLKETCKTAKKAVVIGGGVLGLENASAIKDRGLSVTVVECMPRLMARQLDPEASEILQGFVRDYGVDLRMGQCVVIKGDGKKVTGVQVGDEFISADFVVVNAGVRAESEVAAAAGIECSRGITVNNKMETSAQDVYAAGDCAYMENINQGLWAPALAMGKVAGANAAGDSKTFHFSIEPVNMIAMGTDLFAVGIPPDSPKGYNVISQRDEKEGTAIKLYFKDNRLVYAAGFKCQKQSGFLLKGVRNGHTLQHVLAELF
# notes: full length, 871 residues, C-terminal His6 (pET30a, E. coli BL21 Star DE3); 272 kDa by gel filtration
# What was measured:
# TvFDPF3 (holoTvFDPF3) [1] = biological target: T1, TvFDPF3 (holoTvFDPF3) (Trichomonas vaginalis, UniProt A2E972); assay: anaerobic UV-visible titration, charge-transfer band at […] nm; format: binding
# T1 construct: gene TVAG_121610; full length, 871 residues, C-terminal His6 (pET30a, E. coli BL21 Star DE3), ~100 kDa on SDS-PAGE; FDP-core head-to-tail dimer; holo preparation with full FAD/FMN
# T1 sequence (A2E972 1-871): B1 chain
# TvFDPF3 (holoTvFDPF3) [2] = biological target: T1, TvFDPF3 (holoTvFDPF3); assay: LC-MS quantification of bound flavin; format: binding; details: co-purified cofactor, FDP domain
# From the text: LC-MS quantification of bound flavin on TvFDPF3 (holoTvFDPF3)
# [3] = biological target: class F flavodiiron protein 3 from Trichomonas vaginalis (TvFDPF3) (Trichomonas vaginalis); assay: cryo-EM structure; single-particle cryo-EM of holoTvFDPF3 at 0.8 mg/ml in buffer E (50 mM Hepes-NaOH pH 7.5, 150 mM NaCl); map without symmetry 6.6 Å, C2-symmetric map 6.8 Å; homology models of the domains docked into the density
# purified protein [4] = substrate: NC(=O)C1=CN([C@@H]2O[C@H](COP(=O)(O)OP(=O)(O)OC[C@H]3O[C@@H](n4cnc5c(N)ncnc54)[C@H](O)[C@@H]3O)[C@@H](O)[C@H]2O)C=CC1; assay: purified protein; format: biochemical, Trichomonas vaginalis; details: O2 of air-saturated buffer, 50 mM Hepes-NaOH pH 7.5, 150 mM NaCl, 37 °C
# purified protein [5] = substrate: NC(=O)C1=CN([C@@H]2O[C@H](COP(=O)(O)OP(=O)(O)OC[C@H]3O[C@@H](n4cnc5c(N)ncnc54)[C@H](OP(=O)(O)O)[C@@H]3O)[C@@H](O)[C@H]2O)C=CC1; assay: purified protein; format: biochemical, Trichomonas vaginalis; details: O2 of air-saturated buffer, 50 mM Hepes-NaOH pH 7.5, 150 mM NaCl, 37 °C
# [6] = holoTvFDPF3 (full FAD and FMN), kcat per monomer
# [7] = preparation with 0.32 FAD and 0.009 FMN per monomer
# [8] = preparation with 0.32 FAD and 0.009 FMN per monomer, kcat per monomer
# [9] = preparation with 0.32 FAD and 0.009 FMN per monomer, NAD(P)H tested 0.5-600 μM
# [10] = preparation with 0.32 FAD and 0.009 FMN per monomer, kcat per monomer, NAD(P)H tested 0.5-600 μM
# [11] = preparation with about 1% FMN, kcat per monomer
# [12] = preparation with about 1% FMN, kcat per monomer, NAD(P)H tested 0.5-600 μM
molecule,measurement,setting,value
NC(=O)c1ccc[n+]([C@@H]2O[C@H](COP(=O)(O)OP(=O)(O)OC[C@H]3O[C@@H](n4cnc5c(N)ncnc54)[C@H](O)[C@@H]3O)[C@@H](O)[C@H]2O)c1 [NAD^+],Kd,TvFDPF3 (holoTvFDPF3) [1],~130 nM
Cc1cc2nc3c(=O)[nH]c(=O)nc-3n(C[C@H](O)[C@H](O)[C@H](O)COP(=O)(O)O)c2cc1C [FMN],FMN per protein monomer,TvFDPF3 (holoTvFDPF3) [2],0.92 ± 0.09 mol per mol monomer
class F flavodiiron protein 3 from Trichomonas vaginalis (TvFDPF3) (enzyme),stoichiometry N,[3],2
B1,Km,purified protein [4]; [6],56 ± 2 µM
same,Vmax,purified protein [4]; [6],291 µmol/min/mg
same,kcat,purified protein [4]; [6],466 ± 42 s⁻¹
same,kcat/Km,purified protein [4]; [6],8.3e+06 ± 800000 M⁻¹ s⁻¹
same,Km,purified protein [5]; [6],427 ± 160 µM
same,Vmax,purified protein [5]; [6],11 µmol/min/mg
same,kcat,purified protein [5]; [6],18 ± 6 s⁻¹
same,kcat/Km,purified protein [5]; [6],41000 ± 21000 M⁻¹ s⁻¹
B2,kcat,purified protein [4]; [7],9.6 ± 0.3 s⁻¹
same,kcat/Km,purified protein [4]; [7],530000 ± 60000 M⁻¹ s⁻¹
same,Km,purified protein [4]; [8],18 ± 2 µM
same,Vmax,purified protein [4]; [8],6.1 µmol/min/mg
same,kcat,purified protein [5]; [9],1.7 ± 0.3 s⁻¹
same,kcat/Km,purified protein [5]; [9],1400 ± 300 M⁻¹ s⁻¹
same,Km,purified protein [5]; [10],1171 ± 208 µM
same,Vmax,purified protein [5]; [10],1.1 µmol/min/mg
B3,Km,purified protein [4]; [11],2.9 ± 0.8 µM
same,Vmax,purified protein [4]; [11],4.9 µmol/min/mg
same,kcat,purified protein [4]; [11],7.8 ± 1.9 s⁻¹
same,kcat/Km,purified protein [4]; [11],2.6e+06 ± 900000 M⁻¹ s⁻¹
same,Km,purified protein [5]; [12],1475 ± 486 µM
same,Vmax,purified protein [5]; [12],4.9 µmol/min/mg
same,kcat,purified protein [5]; [12],7.8 ± 3.3 s⁻¹
same,kcat/Km,purified protein [5]; [12],5200 ± 2800 M⁻¹ s⁻¹
